The results in this text go back to the supplement of paper PMC5998384.

In data set [1] the test system is HeLa Kyoto. The data set can be described thus: solubility in G1/S (NP-40 vs SDS abundance) (log2 ratio); higher = more soluble. The settings on record: cell cycle stage: G1/S.
The subject of data set [2] is HeLa Kyoto. Kind of data set: solubility change mitosis vs G1/S (difference of NP-40 vs SDS log2 ratios) (log2 ratio difference); higher = more soluble in mitosis.
Data set [3] deals with HeLa Kyoto. Kind of data set: melting temperature (median over replicates), in situ; higher = more thermally stable.
Data set [4] relates to HeLa Kyoto. The data set can be described thus: thermal stability score vs G1/S (z-score of summed log2 fold changes over temperatures); higher = more thermally stable than in G1/S.
Setting [5] is: cell cycle stage: early G1 (4.5 h after nocodazole release).
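For melting temperature (median over replicates), in situ in this document: HeLa Kyoto cells synchronized by double thymidine or nocodazole block, proteins quantified by TMT10plex mass spectrometry, three independent biological replicates.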
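For solubility change mitosis vs G1/S (difference of NP-40 vs SDS log2 ratios) in this document: synchronized HeLa Kyoto cells (double thymidine block for G1/S, nocodazole release for mitosis), protein amounts in NP-40 versus SDS lysates quantified by mass spectrometry, three biological replicates.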
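For solubility in G1/S (NP-40 vs SDS abundance) in this document: HeLa Kyoto cells arrested at G1/S by double thymidine block, proteins quantified by TMT10plex mass spectrometry in mild NP-40 versus SDS extracts, three biological replicates.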
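For thermal stability score vs G1/S (z-score of summed log2 fold changes over temperatures) in this document: synchronized HeLa Kyoto cells, proteins quantified by TMT10plex mass spectrometry, three biological replicates, mitosis taken 0.5 h after nocodazole release, G1/S directly after double thymidine block.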

Sequence of WNK1 (chain, as listed by the source): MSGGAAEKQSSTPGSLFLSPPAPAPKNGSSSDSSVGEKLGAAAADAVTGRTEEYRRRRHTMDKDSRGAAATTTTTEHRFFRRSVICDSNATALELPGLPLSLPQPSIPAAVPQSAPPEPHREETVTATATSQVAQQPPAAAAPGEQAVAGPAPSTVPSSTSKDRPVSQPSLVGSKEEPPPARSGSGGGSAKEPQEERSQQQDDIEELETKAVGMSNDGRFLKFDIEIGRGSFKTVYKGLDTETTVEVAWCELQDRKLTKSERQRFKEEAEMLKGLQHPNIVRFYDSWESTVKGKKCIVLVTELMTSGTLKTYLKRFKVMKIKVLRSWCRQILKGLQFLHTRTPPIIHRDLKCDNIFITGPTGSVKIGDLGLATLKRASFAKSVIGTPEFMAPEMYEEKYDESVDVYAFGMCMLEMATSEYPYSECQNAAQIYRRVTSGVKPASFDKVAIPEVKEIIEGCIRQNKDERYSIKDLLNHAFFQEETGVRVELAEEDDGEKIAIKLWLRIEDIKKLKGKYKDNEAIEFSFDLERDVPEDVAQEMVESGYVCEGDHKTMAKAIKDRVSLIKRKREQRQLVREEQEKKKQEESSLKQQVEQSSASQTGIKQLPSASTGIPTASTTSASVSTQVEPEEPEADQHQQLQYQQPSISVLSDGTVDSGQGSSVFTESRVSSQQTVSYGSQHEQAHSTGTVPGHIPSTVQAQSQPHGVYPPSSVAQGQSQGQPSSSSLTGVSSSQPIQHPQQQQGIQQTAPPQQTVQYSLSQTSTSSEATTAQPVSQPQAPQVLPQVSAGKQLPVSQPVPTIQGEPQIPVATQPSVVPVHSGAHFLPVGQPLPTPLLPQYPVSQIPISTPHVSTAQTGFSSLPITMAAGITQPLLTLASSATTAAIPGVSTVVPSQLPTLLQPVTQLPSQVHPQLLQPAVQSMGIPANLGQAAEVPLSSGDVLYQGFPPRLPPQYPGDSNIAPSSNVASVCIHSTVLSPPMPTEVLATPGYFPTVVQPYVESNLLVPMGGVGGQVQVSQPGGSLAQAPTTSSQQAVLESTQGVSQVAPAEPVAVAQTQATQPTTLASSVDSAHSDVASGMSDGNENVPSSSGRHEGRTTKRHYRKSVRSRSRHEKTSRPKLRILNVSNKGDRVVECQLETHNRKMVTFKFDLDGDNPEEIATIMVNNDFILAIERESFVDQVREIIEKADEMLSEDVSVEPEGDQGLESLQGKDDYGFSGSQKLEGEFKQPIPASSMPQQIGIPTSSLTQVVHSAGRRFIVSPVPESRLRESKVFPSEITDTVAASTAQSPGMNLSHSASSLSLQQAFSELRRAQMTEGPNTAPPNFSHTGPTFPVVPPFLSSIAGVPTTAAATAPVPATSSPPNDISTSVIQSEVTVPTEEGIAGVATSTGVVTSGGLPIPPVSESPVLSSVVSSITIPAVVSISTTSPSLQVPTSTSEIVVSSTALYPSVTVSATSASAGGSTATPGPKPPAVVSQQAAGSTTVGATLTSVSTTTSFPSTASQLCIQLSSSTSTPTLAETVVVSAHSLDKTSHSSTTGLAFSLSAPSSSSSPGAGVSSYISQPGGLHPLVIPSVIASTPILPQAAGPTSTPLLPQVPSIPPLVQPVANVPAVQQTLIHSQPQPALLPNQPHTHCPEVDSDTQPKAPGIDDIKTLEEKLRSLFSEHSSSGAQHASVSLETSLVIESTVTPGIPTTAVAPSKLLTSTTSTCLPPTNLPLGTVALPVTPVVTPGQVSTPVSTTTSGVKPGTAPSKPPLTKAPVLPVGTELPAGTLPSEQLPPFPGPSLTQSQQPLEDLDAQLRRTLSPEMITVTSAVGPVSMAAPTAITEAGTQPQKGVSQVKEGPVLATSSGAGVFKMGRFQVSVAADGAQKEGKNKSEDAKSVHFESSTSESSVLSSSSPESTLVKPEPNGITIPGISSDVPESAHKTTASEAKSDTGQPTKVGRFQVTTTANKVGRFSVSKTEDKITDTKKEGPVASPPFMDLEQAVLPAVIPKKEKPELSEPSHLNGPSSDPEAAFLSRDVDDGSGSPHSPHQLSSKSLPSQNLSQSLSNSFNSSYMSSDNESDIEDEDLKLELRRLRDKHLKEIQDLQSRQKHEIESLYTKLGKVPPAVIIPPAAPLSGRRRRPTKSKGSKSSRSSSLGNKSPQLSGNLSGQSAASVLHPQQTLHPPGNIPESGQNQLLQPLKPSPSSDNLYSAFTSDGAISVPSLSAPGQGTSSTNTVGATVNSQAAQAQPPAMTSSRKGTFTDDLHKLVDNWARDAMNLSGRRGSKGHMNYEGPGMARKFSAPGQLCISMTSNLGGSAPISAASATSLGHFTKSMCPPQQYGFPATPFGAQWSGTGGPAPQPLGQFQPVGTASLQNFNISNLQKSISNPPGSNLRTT

With “MSDKLPYKVADIGLAAWGRKALDIAENEMPGLMRMRERYSASKPLKGARIAGCLHMTVETAVLIETLVTLGAEVQWSSCNIFSTQDHAAAAIAKAGIPVYAWKGETDEEYLWCIEQTLYFKDGPLNMILDDGGDLTNLIHTKYPQLLPGIRGISEETTTGVHNLYKMMANGILKVPAINVNDSVTKSKFDNLYGCRESLIDGIKRATDVMIAGKVAVVAGYGDVGKGCAQALRGFGARVIITEIDPINALQAAMEGYEVTTMDEACQEGNIFVTTTGCIDIILGRHFEQMKDDAIVCNIGHFDVEIDVKWLNENAVEKVNIKPQVDRYRLKNGRRIILLAEGRLVNLGCAMGHPSFVMSNSFTNQVMAQIELWTHPDKYPVGVHFLPKKLDEAVAEAHLGKLNVKLTKLTEKQAQYLGMSCDGPFKPDHYRY [AHCY]”, the “solubility in G1/S (log2)” value with HeLa Kyoto [1] turned out to be 0.0748. Further, the “solubility change mitosis (log2)” value in the data set with HeLa Kyoto [2] is -0.0568. In addition, the melting temperature with HeLa Kyoto [3] (cell cycle stage: G1/S) was determined as 58.9 °C; in the data set on HeLa Kyoto [3] (cell cycle stage: mitosis), 59.3 °C. In addition, the thermal stability score with HeLa Kyoto [4] (setting [5]) is -2.93; with HeLa Kyoto [4] (cell cycle stage: mitosis), -2.39.

On to “MNNQKQQKPTLSGQRFKTRKRDEKERFDPTQFQDCIIQGLTETGTDLEAVAKFLDASGAKLDYRRYAETLFDILVAGGMLAPGGTLADDMMRTDVCVFAAQEDLETMQAFAQVFNKLIRRYKYLEKGFEDEVKKLLLFLKGFSESERNKLAMLTGVLLANGTLNASILNSLYNENLVKEGVSAAFAVKLFKSWINEKDINAVAASLRKVSMDNRLMELFPANKQSVEHFTKYFTEAGLKELSEYVRNQQTIGARKELQKELQEQMSRGDPFKDIILYVKEEMKKNNIPEPVVIGIVWSSVMSTVEWNKKEELVAEQAIKHLKQYSPLLAAFTTQGQSELTLLLKIQEYCYDNIHFMKAFQKIVVLFYKAEVLSEEPILKWYKDAHVAKGKSVFLEQMKKFVEWLKNAEEESESEAEEGD [BZW1]”, for which the “solubility in G1/S (log2)” value in the data set with HeLa Kyoto [1] amounted to 0.625. For the same substance, the “solubility change mitosis (log2)” value with HeLa Kyoto [2] is -0.105. In addition, the melting temperature with HeLa Kyoto [3] (cell cycle stage: G1/S) is 49.3 °C; with HeLa Kyoto [3] (cell cycle stage: mitosis), 48.8 °C. For the same substance, the thermal stability score in the data set with HeLa Kyoto [4] (setting [5]) was 2.93; with HeLa Kyoto [4] (cell cycle stage: mitosis), 6.17.

Turning to ERP29, the “solubility in G1/S (log2)” value with HeLa Kyoto [1] stood at 0.456. Further, in the data set with HeLa Kyoto [2], the “solubility change mitosis (log2)” value amounted to 0.169. Further, the melting temperature with HeLa Kyoto [3] (cell cycle stage: G1/S) is 54.6 °C; in the data set on HeLa Kyoto [3] (cell cycle stage: mitosis) it was 55.7 °C. In addition, the values for the thermal stability score in the data set with HeLa Kyoto [4] (setting [5]) and in the data set on HeLa Kyoto [4] (cell cycle stage: mitosis) were 2.19 and -0.433, respectively.

For the substance “MASSRASSTQATKTKAPDDLVAPVVKKPHIYYGSLEEKERERLAKGESGILGKDGLKAGIEAGNINITSGEVFEIEEHISERQAEVLAEFERRKRARQINVSTDDSEVKACLRALGEPITLFGEGPAERRERLRNILSVVGTDALKKTKKDDEKSKKSKEEYQQTWYHEGPNSLKVARLWIANYSLPRAMKRLEEARLHKEIPETTRTSQMQELHKSLRSLNNFCSQIGDDRPISYCHFSPNSKMLATACWSGLCKLWSVPDCNLLHTLRGHNTNVGAIVFHPKSTVSLDPKDVNLASCAADGSVKLWSLDSDEPVADIEGHTVRVARVMWHPSGRFLGTTCYDRSWRLWDLEAQEEILHQEGHSMGVYDIAFHQDGSLAGTGGLDAFGRVWDLRTGRCIMFLEGHLKEIYGINFSPNGYHIATGSGDNTCKVWDLRQRRCVYTIPAHQNLVTGVKFEPIHGNFLLTGAYDNTAKIWTHPGWSPLKTLAGHEGKVMGLDISSDGQLIATCSYDRTFKLWMAE [PRPF4]”, in the data set with HeLa Kyoto [1], the “solubility in G1/S (log2)” value is -0.454. In addition, the “solubility change mitosis (log2)” value with HeLa Kyoto [2] amounted to 0.223. Moreover, the figures for the melting temperature in the data set with HeLa Kyoto [3] (cell cycle stage: G1/S) and in the data set with HeLa Kyoto [3] (cell cycle stage: mitosis) were 49.9 °C and 49.5 °C, respectively. The thermal stability score was -0.546 in the data set with HeLa Kyoto [4] (setting [5]) and -0.96 in the data set on HeLa Kyoto [4] (cell cycle stage: mitosis).

Take “MASADSRRVADGGGAGGTFQPYLDTLRQELQQTDPTLLSVVVAVLAVLLTLVFWKLIRSRRSSQRAVLLVGLCDSGKTLLFVRLLTGLYRDTQTSITDSCAVYRVNNNRGNSLTLIDLPGHESLRLQFLERFKSSARAIVFVVDSAAFQREVKDVAEFLYQVLIDSMGLKNTPSFLIACNKQDIAMAKSAKLIQQQLEKELNTLRVTRSAAPSTLDSSSTAPAQLGKKGKEFEFSQLPLKVEFLECSAKGGRGDVGSADIQDLEKWLAKIA [SRPRB]”: the “solubility in G1/S (log2)” value in the data set with HeLa Kyoto [1] worked out at 0.446. Besides, in the data set with HeLa Kyoto [2], the “solubility change mitosis (log2)” value is -0.0359. Moreover, the melting temperature with HeLa Kyoto [3] (cell cycle stage: G1/S) was 50.2 °C; in the data set with HeLa Kyoto [3] (cell cycle stage: mitosis), 50 °C. In addition, the thermal stability score stood at 3.56 with HeLa Kyoto [4] (setting [5]) and 5.21 in the data set on HeLa Kyoto [4] (cell cycle stage: mitosis).

On to “MDRVTRYPILGIPQAHRGTGLVLDGDTSYTYHLVCMGPEASGWGQDEPQTWPTDHRAQQGVQRQGVSYSVHAYTGQPSPRGLHSENREDEGWQVYRLGARDAHQGRPTWALRPEDGEDKEMKTYRLDAGDADPRRLCDLERERWAVIQGQAVRKSSTVATLQGTPDHGDPRTPGPPRSTPLEENVVDREQIDFLAARQQFLSLEQANKGAPHSSPARGTPAGTTPGASQAPKAFNKPHLANGHVVPIKPQVKGVVREENKVRAVPTWASVQVVDDPGSLASVESPGTPKETPIEREIRLAQEREADLREQRGLRQATDHQELVEIPTRPLLTKLSLITAPRRERGRPSLYVQRDIVQETQREEDHRREGLHVGRASTPDWVSEGPQPGLRRALSSDSILSPAPDARAADPAPEVRKVNRIPPDAYQPYLSPGTPQLEFSAFGAFGKPSSLSTAEAKAATSPKATMSPRHLSESSGKPLSTKQEASKPPRGCPQANRGVVRWEYFRLRPLRFRAPDEPQQAQVPHVWGWEVAGAPALRLQKSQSSDLLERERESVLRREQEVAEERRNALFPEVFSPTPDENSDQNSRSSSQASGITGSYSVSESPFFSPIHLHSNVAWTVEDPVDSAPPGQRKKEQWYAGINPSDGINSEVLEAIRVTRHKNAMAERWESRIYASEEDD [MISP]”, for which, in the data set on HeLa Kyoto [1], the “solubility in G1/S (log2)” value is -2.09. In the data set with HeLa Kyoto [2], the “solubility change mitosis (log2)” value is 1.38. In addition, in the data set with HeLa Kyoto [3] (cell cycle stage: mitosis), the melting temperature was 51.9 °C. The thermal stability score in the data set on HeLa Kyoto [4] (setting [5]) is -1.21; in the data set on HeLa Kyoto [4] (cell cycle stage: mitosis), -1.86.

As for WNK1, the “solubility in G1/S (log2)” value in the data set with HeLa Kyoto [1] came to 0.0681. Also, the “solubility change mitosis (log2)” value with HeLa Kyoto [2] is -0.164. In addition, the melting temperature is 51.9 °C with HeLa Kyoto [3] (cell cycle stage: G1/S) and 52.2 °C in the data set with HeLa Kyoto [3] (cell cycle stage: mitosis). In addition, the thermal stability score with HeLa Kyoto [4] (setting [5]) was found to be 1.74; in the data set with HeLa Kyoto [4] (cell cycle stage: mitosis) it was 3.55.
